T1: NTD_(1-53)-sfGFP P22A (H. neapolitanus, UniProt O85042 1-53, P22A)
T1 construct: first 53 residues of CsoSCA, H. neapolitanus, with P22A; source: E. coli, purified (His-tag purification); not shown: sfGFP, C-terminal, kept; His tag, C-terminal, kept
T1 sequence (looked up): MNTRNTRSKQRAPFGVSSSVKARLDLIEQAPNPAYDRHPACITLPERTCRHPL

T2: NTD_(1-53)-sfGFP R23A (H. neapolitanus, UniProt O85042 1-53, R23A)
T2 construct: first 53 residues of CsoSCA, H. neapolitanus, with R23A; source: E. coli, purified (His-tag purification); not shown: sfGFP, C-terminal, kept; His tag, C-terminal, kept
T2 sequence (looked up): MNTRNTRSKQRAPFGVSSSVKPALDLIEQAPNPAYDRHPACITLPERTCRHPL

T3: CbbS, Rubisco small subunit (as in Rubisco-strep) (H. neapolitanus, UniProt P45686 1-110)
T3 construct: Rubisco small subunit CbbS, H. neapolitanus; residues M4-N110 modelled; Subunit of m2, written on its own for the contacts in the cryo-EM structure; source: E. coli, coexpressed with GroEL/ES, purified as Rubisco-strep
T3 sequence: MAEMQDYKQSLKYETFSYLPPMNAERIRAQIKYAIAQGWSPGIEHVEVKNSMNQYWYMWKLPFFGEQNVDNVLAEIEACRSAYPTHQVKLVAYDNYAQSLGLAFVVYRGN

B1: Rubisco-strep (H. neapolitanus CbbL8S8) (complex)
chain 1: MAVKKYSAGVKEYRQTYWMPEYTPLDSDILACFKITPQPGVDREEAAAAVAAESSTGTWTTVWTDLLTDMDYYKGRAYRIEDVPGDDAAFYAFIAYPIDLFEEGSVVNVFTSLVGNVFGFKAVRGLRLEDVRFPLAYVKTCGGPPHGIQVERDKMNKYGRPLLGCTIKPKLGLSAKNYGRAVYECLRGGLDFTKDDENINSQPFMRWRDRFLFVQDATETAEAQTGERKGHYLNVTAPTPEEMYKRAEFAKEIGAPIIMHDYITGGFTANTGLAKWCQDNGVLLHIHRAMHAVIDRNPNHGIHFRVLTKILRLSGGDHLHTGTVVGKLEGDRASTLGWIDLLRESFIPEDRSRGIFFDQDWGSMPGVFAVASGGIHVWHMPALVNIFGDDSVLQFGGGTLGHPWGNAAGAAANRVALEACVEARNQGRDIEKEGKEILTAAAQHSPELKIAMETWKEIKFEFDTVDKLDTQNR
chain 2: MAEMQDYKQSLKYETFSYLPPMNAERIRAQIKYAIAQGWSPGIEHVEVKNSMNQYWYMWKLPFFGEQNVDNVLAEIEACRSAYPTHQVKLVAYDNYAQSLGLAFVVYRGN
notes: Rubisco large subunit CbbL, H. neapolitanus, alpha-carboxysomal Form IA; residues V3-E457 modelled in the cryo-EM maps; Rubisco small subunit CbbS, H. neapolitanus; residues M4-N110 modelled in the cryo-EM maps; Printed both as 'strep-Rubisco' and 'Rubisco-strep'; plasmid in Dataset S4; also called strep-Rubisco; WT; source: E. coli, coexpressed with GroEL/ES, purified (Strep-tag purification); …
B2: NTD_(1-53)-sfGFP (domain or fragment, H. neapolitanus, UniProt O85042 1-53, looked up)
chain: MNTRNTRSKQRAPFGVSSSVKPRLDLIEQAPNPAYDRHPACITLPERTCRHPL
notes: first 53 residues of CsoSCA (unstructured N-terminal peptide), H. neapolitanus; Fused to monomeric superfolder GFP; Linker, if any, is in Dataset S4; also called NTD_(1-53)-sfGFP-His; source: E. coli, purified (His-tag purification); not shown: sfGFP, C-terminal, kept; His tag, C-terminal, kept

Tests used:
[1] = biological target: B2; assay: BLI; 5 μg/mL NTD_(1-53)-sfGFP-His (or point mutant) immobilised on Ni-NTA biosensors; strep-Rubisco (WT 250–3.9 nM, or mutant) as prey; 25 mM Tris pH 7.5, 70 mM NaCl, 0.01% Triton X100; 1:2 (Bivalent Analyte) binding model; conditions: both partners purified
[2] = biological target: T1, NTD_(1-53)-sfGFP P22A; assay: as above; conditions: both partners purified
[3] = biological target: T2, NTD_(1-53)-sfGFP R23A; assay: as above; conditions: both partners purified
[4] = biological target: the molecule itself; assay: cryo-EM structure; 0.5 μM Rubisco-strep with 0.5 mM NTD_(1-50) peptide; 25 mM Tris pH 7.5, 80 mM NaCl, 2% glycerol; two reconstructions (State-1, State-2), D4 symmetry
[5] = biological target: B1; assay: SEC; NTD_(1-53)-sfGFP and Rubisco-strep mixed 32:1 (NTD_(1-53)-sfGFP:CbbL8S8); Superose 6 Increase 3.2/300; 20 mM Tris pH 7.5, 150 mM NaCl, 4 °C; A280 and A485; conditions: both partners purified
[6] = biological target: B1; assay: cryo-EM structure; 0.5 μM Rubisco-strep with 0.5 mM NTD_(1-50) peptide; 25 mM Tris pH 7.5, 80 mM NaCl, 2% glycerol; two reconstructions (State-1, State-2), D4 symmetry; conditions: both partners purified
[7] = biological target: T3, CbbS, Rubisco small subunit (as in …); assay: as above; conditions: both partners purified
[8] = biological target: T4, Rubisco-strep (CbbL8S8) from Halothiobacillus neapolitanus (H. neapolitanus, UniProt O85040 1-473; P45686 1-110); assay: SEC; Superose 6 Increase 3.2/300, 20 mM Tris pH 7.5, 150 mM NaCl, 4 °C; NTD1-53-sfGFP:CbbL8S8 mixed 32:1; A280 and A485 monitored; conditions: both partners purified
T4 construct: Rubisco large subunit CbbL, Halothiobacillus neapolitanus; Rubisco small subunit CbbS, Halothiobacillus neapolitanus; also called strep-Rubisco; source: E. coli (BL21-A1 or BW25113, see Dataset S4), co-expressed with GroEL/ES, purified (StrepTrap); copies: 8 + 8

| KD2 (second set of the 1:2 fit) [1] [nM] | KD (first set of the 1:2 fit) [1] [nM] | koff2 (second set of the 1:2 fit) [1] [s⁻¹] | koff (first set of the 1:2 fit) [1] [s⁻¹] | kon2 (second set of the 1:2 fit) [1] [M⁻¹ s⁻¹] | kon (first set of the 1:2 fit) [1] [M⁻¹ s⁻¹] | Binder | further results |
| --- | --- | --- | --- | --- | --- | --- | --- |
| 80 ± 1 | 33 ± 0.4 | 0.11 | 0.0069 | 1.4e+06 | 210000 | B1 | KD2 (second set of the 1:2 fit) [2]: 6.5 ± 0.4 µM; KD (first set of the 1:2 fit) [2]: 18000 nM; koff2 (second set of the 1:2 fit) [2]: 0.44 s⁻¹; koff (first set of the 1:2 fit) [2]: 0.044 s⁻¹; kon2 (second set of the 1:2 fit) [2]: 68000 M⁻¹ s⁻¹; kon (first set of the 1:2 fit) [2]: 2400 M⁻¹ s⁻¹; KD2 (second set of the 1:2 fit) [3]: 130 ± 2 nM; KD (first set of the 1:2 fit) [3]: 17 ± 0.2 nM; koff2 (second set of the 1:2 fit) [3]: 0.061 s⁻¹; koff (first set of the 1:2 fit) [3]: 0.0033 s⁻¹; kon2 (second set of the 1:2 fit) [3]: 460000 M⁻¹ s⁻¹; kon (first set of the 1:2 fit) [3]: 190000 M⁻¹ s⁻¹ |
|  |  |  |  |  |  | CbbL, Rubisco large subunit (as in Rubisco-strep) (natural protein, H. neapolitanus, Rubisco large subunit CbbL, H. neapolitanus; residues V3-E457 modelled; Subunit of m2, written on its own for the contacts in the cryo-EM structure; also called CbbLA; CbbLB; source: E. coli, coexpressed with GroEL/ES, purified as Rubisco-strep) MAVKKYSAGVKEYRQTYWMPEYTPLDSDILACFKITPQPGVDREEAAAAVAAESSTGTWTTVWTDLLTDMDYYKGRAYRIEDVPGDDAAFYAFIAYPIDLFEEGSVVNVFTSLVGNVFGFKAVRGLRLEDVRFPLAYVKTCGGPPHGIQVERDKMNKYGRPLLGCTIKPKLGLSAKNYGRAVYECLRGGLDFTKDDENINSQPFMRWRDRFLFVQDATETAEAQTGERKGHYLNVTAPTPEEMYKRAEFAKEIGAPIIMHDYITGGFTANTGLAKWCQDNGVLLHIHRAMHAVIDRNPNHGIHFRVLTKILRLSGGDHLHTGTVVGKLEGDRASTLGWIDLLRESFIPEDRSRGIFFDQDWGSMPGVFAVASGGIHVWHMPALVNIFGDDSVLQFGGGTLGHPWGNAAGAAANRVALEACVEARNQGRDIEKEGKEILTAAAQHSPELKIAMETWKEIKFEFDTVDKLDTQNR | binding result [4]: binds |
|  |  |  |  |  |  | B2 | binding result [5]: binds |
| 820 ± 11 | 320 ± 6 | 0.15 | 0.0089 | 180000 | 28000 | Rubisco Y72A (complex, H. neapolitanus, Rubisco large subunit CbbL, H. neapolitanus, with Y72A (the text places Y72 on CbbL); Rubisco small subunit CbbS, H. neapolitanus; Plasmid in Dataset S4; source: E. coli, coexpressed with GroEL/ES, purified (Strep-tag purification); copies: 8 + 8) chain 1: MAVKKYSAGVKEYRQTYWMPEYTPLDSDILACFKITPQPGVDREEAAAAVAAESSTGTWTTVWTDLLTDMDAYKGRAYRIEDVPGDDAAFYAFIAYPIDLFEEGSVVNVFTSLVGNVFGFKAVRGLRLEDVRFPLAYVKTCGGPPHGIQVERDKMNKYGRPLLGCTIKPKLGLSAKNYGRAVYECLRGGLDFTKDDENINSQPFMRWRDRFLFVQDATETAEAQTGERKGHYLNVTAPTPEEMYKRAEFAKEIGAPIIMHDYITGGFTANTGLAKWCQDNGVLLHIHRAMHAVIDRNPNHGIHFRVLTKILRLSGGDHLHTGTVVGKLEGDRASTLGWIDLLRESFIPEDRSRGIFFDQDWGSMPGVFAVASGGIHVWHMPALVNIFGDDSVLQFGGGTLGHPWGNAAGAAANRVALEACVEARNQGRDIEKEGKEILTAAAQHSPELKIAMETWKEIKFEFDTVDKLDTQNR chain 2: MAEMQDYKQSLKYETFSYLPPMNAERIRAQIKYAIAQGWSPGIEHVEVKNSMNQYWYMWKLPFFGEQNVDNVLAEIEACRSAYPTHQVKLVAYDNYAQSLGLAFVVYRGN |  |
| 1100 ± 14 | 400 ± 10 | 0.15 | 0.0059 | 130000 | 15000 | Rubisco D99A (complex, H. neapolitanus, Rubisco large subunit CbbL, H. neapolitanus, with D99A (the text places D99 on CbbL); Rubisco small subunit CbbS, H. neapolitanus; Plasmid in Dataset S4; source: E. coli, coexpressed with GroEL/ES, purified (Strep-tag purification); copies: 8 + 8) chain 1: MAVKKYSAGVKEYRQTYWMPEYTPLDSDILACFKITPQPGVDREEAAAAVAAESSTGTWTTVWTDLLTDMDYYKGRAYRIEDVPGDDAAFYAFIAYPIALFEEGSVVNVFTSLVGNVFGFKAVRGLRLEDVRFPLAYVKTCGGPPHGIQVERDKMNKYGRPLLGCTIKPKLGLSAKNYGRAVYECLRGGLDFTKDDENINSQPFMRWRDRFLFVQDATETAEAQTGERKGHYLNVTAPTPEEMYKRAEFAKEIGAPIIMHDYITGGFTANTGLAKWCQDNGVLLHIHRAMHAVIDRNPNHGIHFRVLTKILRLSGGDHLHTGTVVGKLEGDRASTLGWIDLLRESFIPEDRSRGIFFDQDWGSMPGVFAVASGGIHVWHMPALVNIFGDDSVLQFGGGTLGHPWGNAAGAAANRVALEACVEARNQGRDIEKEGKEILTAAAQHSPELKIAMETWKEIKFEFDTVDKLDTQNR chain 2: MAEMQDYKQSLKYETFSYLPPMNAERIRAQIKYAIAQGWSPGIEHVEVKNSMNQYWYMWKLPFFGEQNVDNVLAEIEACRSAYPTHQVKLVAYDNYAQSLGLAFVVYRGN |  |
|  |  |  |  |  |  | MNTRNTRSKQRAPFGVSSSVKPRLDLIEQAPNPAYDRHPACITLPERTCR (peptide, UniProt O85042 1-50, looked up, first 50 residues of CsoSCA, H. neapolitanus; also called NTD peptide; N50 peptide) [NTD_(1-50) peptide (CsoSCA residue 1-50)] | stoichiometry N [6]: 8; binding result [7]: binds |
|  |  |  |  |  |  | NTD1-53-sfGFP-His, first 53 residues of CsoSCA fused to superfolder GFP (domain or fragment, H. neapolitanus, UniProt O85042 1-53, looked up, first 53 residues of CsoSCA, Halothiobacillus neapolitanus; source: E. coli (see Dataset S4), purified (His-tag purification)) MNTRNTRSKQRAPFGVSSSVKPRLDLIEQAPNPAYDRHPACITLPERTCRHPL | binding result [8]: binds |

— article PMC10614612, “Identification of a carbonic anhydrase–Rubisco complex within the alpha-carboxysome” (Proceedings of the National Academy of Sciences of the …, 2023)
